In patent publication US20260232759A1, “PEPTIDES THAT INHIBIT INFECTION BY SARS-COV-2, THE VIRUS THAT CAUSES COVID-19 DISEASE” (Wisconsin Alumni Research Foundation, priority 2021, published 2026):
No end group written: not given here.

Target: SARS-CoV-2 Spike protein (SARS-CoV-2), P0DTC2
Test: cell-based or functional assay

B1: Bf APC/B3E (peptide)
peptide: DISQINASVVNIEYEIXKLEEVAXKLEESLIDLQELGSGSGC
modifications: not fully specified (C-terminus); also: α/β-peptide, β-residue positions not given here
Q: With B1 as the binder, how does the inhibition of S-mediated cell-cell fusion (β-Gal complementation), IC50 read?
A: 50 nM
